Biological target: T1, purified HAstV-8 virus particles (strain Yuc-8) (human astrovirus serotype 8 (HAstV-8), strain Yuc-8) (UniProt Q9IFX1)
T1 sequence 1: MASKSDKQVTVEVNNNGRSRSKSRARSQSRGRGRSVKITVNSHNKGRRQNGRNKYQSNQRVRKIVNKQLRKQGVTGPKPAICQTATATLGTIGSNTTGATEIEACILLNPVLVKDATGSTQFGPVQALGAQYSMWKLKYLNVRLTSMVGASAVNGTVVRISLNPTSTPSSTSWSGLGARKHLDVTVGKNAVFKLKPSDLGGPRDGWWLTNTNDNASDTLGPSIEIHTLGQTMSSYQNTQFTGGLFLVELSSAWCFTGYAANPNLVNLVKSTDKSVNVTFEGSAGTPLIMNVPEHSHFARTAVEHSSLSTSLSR
T1 sequence 2: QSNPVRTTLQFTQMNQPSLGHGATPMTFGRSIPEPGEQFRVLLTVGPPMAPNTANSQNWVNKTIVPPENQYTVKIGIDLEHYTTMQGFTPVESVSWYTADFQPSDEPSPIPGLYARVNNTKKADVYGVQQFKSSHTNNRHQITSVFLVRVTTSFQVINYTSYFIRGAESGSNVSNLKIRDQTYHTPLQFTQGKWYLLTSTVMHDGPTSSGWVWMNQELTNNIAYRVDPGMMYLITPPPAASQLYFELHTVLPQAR

Chain of recombinant human FCGRT & B2M heterodimer protein (SinoBiological #CT009-H08H) (P55899 24-297): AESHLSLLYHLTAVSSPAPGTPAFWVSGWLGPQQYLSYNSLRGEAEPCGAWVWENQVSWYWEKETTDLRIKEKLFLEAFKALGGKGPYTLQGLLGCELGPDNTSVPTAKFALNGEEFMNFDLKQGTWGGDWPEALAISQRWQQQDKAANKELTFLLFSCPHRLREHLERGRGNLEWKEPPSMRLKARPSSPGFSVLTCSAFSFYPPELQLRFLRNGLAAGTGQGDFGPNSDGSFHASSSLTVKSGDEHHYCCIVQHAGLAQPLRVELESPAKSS
Chain of recombinant human FCGRT & B2M heterodimer protein (SinoBiological #CT009-H08H) (P61769 21-119): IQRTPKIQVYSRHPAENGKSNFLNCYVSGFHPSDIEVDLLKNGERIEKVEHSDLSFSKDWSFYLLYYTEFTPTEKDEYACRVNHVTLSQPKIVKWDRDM

recombinant human FCGRT & B2M heterodimer protein (SinoBiological #CT009-H08H) (from UniProt P55899 24-297; P61769 21-119) (receptor)
FcRn concentration that lowers by 50% the infectivity of the WT chimeric HAstV-1/HAstV-8 virus in Caco-2 cells (neutralization assay with different concentrations of FcRn): 100 ng/mL

— article PMC12289001
